This series deals with the molecule itself. Kind of series: LC-MS.

Experimental findings from publication PMC2783993 (Biotechnology progress, 2009) are described below.

The stoichiometry N is a count of units in the complex or per binding partner.

B1: bovine hemoglobin β globin chain (natural protein)
chain: not shown
In the case of B1, the “stoichiometry N” value is 2.
